Changes are numbered by the printed parent chain. In names and notes the source's numbering stands.
T1: EsCas13d, nuclease-dead (Eubacterium siraeum, UniProt B0MS50, R295A;H300A;R849A;H854A)
T1 sequence: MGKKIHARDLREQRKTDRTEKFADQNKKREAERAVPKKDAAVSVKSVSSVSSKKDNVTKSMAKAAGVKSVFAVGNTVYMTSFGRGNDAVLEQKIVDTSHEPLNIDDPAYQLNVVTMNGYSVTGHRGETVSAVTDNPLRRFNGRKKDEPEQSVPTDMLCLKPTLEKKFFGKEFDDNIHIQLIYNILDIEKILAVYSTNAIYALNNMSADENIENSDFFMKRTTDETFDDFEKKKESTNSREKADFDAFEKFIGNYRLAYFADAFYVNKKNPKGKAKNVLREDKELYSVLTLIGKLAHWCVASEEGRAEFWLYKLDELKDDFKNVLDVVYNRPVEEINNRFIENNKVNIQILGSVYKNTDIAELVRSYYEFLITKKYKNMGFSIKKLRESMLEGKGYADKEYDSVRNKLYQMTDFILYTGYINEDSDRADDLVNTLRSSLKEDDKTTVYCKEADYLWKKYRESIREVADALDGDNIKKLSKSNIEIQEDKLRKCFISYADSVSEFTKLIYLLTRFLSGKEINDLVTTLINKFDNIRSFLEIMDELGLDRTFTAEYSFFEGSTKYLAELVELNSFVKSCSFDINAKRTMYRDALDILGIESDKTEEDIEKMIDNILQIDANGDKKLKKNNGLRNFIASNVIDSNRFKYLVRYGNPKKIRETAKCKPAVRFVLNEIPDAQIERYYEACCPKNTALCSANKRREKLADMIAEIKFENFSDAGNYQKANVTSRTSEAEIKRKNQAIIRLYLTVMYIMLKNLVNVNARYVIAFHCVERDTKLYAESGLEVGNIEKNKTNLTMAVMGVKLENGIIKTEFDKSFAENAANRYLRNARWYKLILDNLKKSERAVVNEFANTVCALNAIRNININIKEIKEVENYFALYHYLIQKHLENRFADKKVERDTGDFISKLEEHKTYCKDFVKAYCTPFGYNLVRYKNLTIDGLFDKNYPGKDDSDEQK

B1: target 1 A18C,U19G (mixed)
RNA 1: CACCCGUGCAAAAAUGCAGGGGUCUAAAACUGAGCGGAUAACCUCUCUAUGG
RNA 2: GGGAAUGGAUCCACAUCUACGAAUUCGUACCAGCGAGAGGUUAUCCGCUCACCGAGAUCGGAAGAGCACACGU
B2: target 3 A12C (mixed)
RNA 1: CACCCGUGCAAAAUUGCAGGGGUCUAAAACGACCUGAAUAUUUCAGAUCAAA
RNA 2: GGGAAUGGAUCCACAUCUACGAAUUCGUUUUUGAUCUGACAUAUUCAGGUCUGCAGAUCGGAAGAGCACACGU
B3: target 3 insU 3' of 19,insU 3' of 3 (mixed)
RNA 1: B2 RNA 1
RNA 2: GGGAAUGGAUCCACAUCUACGAAUUCGUUUUUGUAUCUGAAAUAUUCAGGUUCUGCAGAUCGGAAGAGCACACGU
B4: target 3 A5G,A13G (mixed)
RNA 1: B2 RNA 1
RNA 2: B2 RNA 2 with A39G, C40A, A47G
B5: target 3 insA 3' of 22,insC 3' of 19 (mixed)
RNA 1: B2 RNA 1
RNA 2: GGGAAUGGAUCCACAUCUACGAAUUCGUUUAUUGCAUCUGAAAUAUUCAGGUCUGCAGAUCGGAAGAGCACACGU
B6: target 3 U7G,A18G (mixed)
RNA 1: B2 RNA 1
RNA 2: B2 RNA 2 with A34G, C40A, U45G
B7: target 3 C6U,A11U (mixed)
RNA 1: B2 RNA 1
RNA 2: B2 RNA 2 with C40A, A41U, C46U
B8: target 3 A5C (mixed)
RNA 1: B2 RNA 1
RNA 2: B2 RNA 2 with C40A, A47C
B9: target 3 C6A,U7G (mixed)
RNA 1: B2 RNA 1
RNA 2: B2 RNA 2 with C40A, U45G, C46A
B10: target 3 C1G,A5C (mixed)
RNA 1: B2 RNA 1
RNA 2: B2 RNA 2 with C40A, A47C, C51G
B11: target 3 U7G,U22A (mixed)
RNA 1: B2 RNA 1
RNA 2: B2 RNA 2 with U30A, C40A, U45G
B12: target 1 insC 3' of 18,insG 3' of 1 (mixed)
RNA 1: B1 RNA 1
RNA 2: GGGAAUGGAUCCACAUCUACGAAUUCGUACCAUACGAGAGGUUAUCCGCUCAGCCGAGAUCGGAAGAGCACACGU
B13: target 3 insA 3' of 22,insG 3' of 6 (mixed)
RNA 1: B2 RNA 1
RNA 2: B3 RNA 2 with U31A, G33U, U34G, A48G, G49A, U51G
B14: target 3 insC 3' of 4,insU 3' of 3 (mixed)
RNA 1: B2 RNA 1
RNA 2: GGGAAUGGAUCCACAUCUACGAAUUCGUUUUUGAUCUGAAAUAUUCAGCGUUCUGCAGAUCGGAAGAGCACACGU
B15: target 3 G4A,A18G (mixed)
RNA 1: B2 RNA 1
RNA 2: B2 RNA 2 with A34G, C40A, G48A
B16: target 3 C1U,U2G (mixed)
RNA 1: B2 RNA 1
RNA 2: B2 RNA 2 with C40A, U50G, C51U
B17: target 3 A12G,U22A (mixed)
RNA 1: B2 RNA 1
RNA 2: B2 RNA 2 with U30A, C40G
B18: target 3 U2G,U8C (mixed)
RNA 1: B2 RNA 1
RNA 2: B2 RNA 2 with C40A, U44C, U50G
B19: target 3 insG 3' of 5,insA 3' of 3 (mixed)
RNA 1: B2 RNA 1
RNA 2: B14 RNA 2 with C49G, U51A
B20: target 3 C1G,U7G (mixed)
RNA 1: B2 RNA 1
RNA 2: B2 RNA 2 with C40A, U45G, C51G
B21: target 1 insU 3' of 20,insA 3' of 4 (mixed)
RNA 1: B1 RNA 1
RNA 2: B12 RNA 2 with A34U, C35A, U50A, C51U, A52C, G53A
B22: target 3 insA 3' of 8,insU 3' of 3 (mixed)
RNA 1: B2 RNA 1
RNA 2: B14 RNA 2 with U45A, C46U, A47C, G48A, C49G
B23: target 3 insU 3' of 22,insU 3' of 5 (mixed)
RNA 1: B2 RNA 1
RNA 2: B3 RNA 2 with G33U, U34G, G49U, U51G
B24: target 3 U2A,G4A (mixed)
RNA 1: B2 RNA 1
RNA 2: B2 RNA 2 with C40A, G48A, U50A
B25: target 3 U7G,U8A (mixed)
RNA 1: B2 RNA 1
RNA 2: B2 RNA 2 with C40A, U44A, U45G
B26: target 3 insA 3' of 21,insC 3' of 4 (mixed)
RNA 1: B2 RNA 1
RNA 2: B3 RNA 2 with U32A, G33U, U34G, G50C, U51G
B27: target 3 insC 3' of 9,insC 3' of 4 (mixed)
RNA 1: B2 RNA 1
RNA 2: B14 RNA 2 with U44C, C46U, A47C, G48A, C49G, G50C, U51G
B28: target 3 insU 3' of 22,insA 3' of 3 (mixed)
RNA 1: B2 RNA 1
RNA 2: B3 RNA 2 with G33U, U34G, U51A
B29: target 3 insA 3' of 3,insG 3' of 1 (mixed)
RNA 1: B2 RNA 1
RNA 2: B14 RNA 2 with C49G, G50A, U52C, C53G
B30: target 3 U7A (mixed)
RNA 1: B2 RNA 1
RNA 2: B2 RNA 2 with C40A, U45A
B31: target 1 insC 3' of 18,insC 3' of 1 (mixed)
RNA 1: B1 RNA 1
RNA 2: B12 RNA 2 with G53C
B32: target 3 C6U,A13G (mixed)
RNA 1: B2 RNA 1
RNA 2: B2 RNA 2 with A39G, C40A, C46U
B33: target 3 C1G,U7A (mixed)
RNA 1: B2 RNA 1
RNA 2: B2 RNA 2 with C40A, U45A, C51G

molecular target: T1, EsCas13d, nuclease-dead; assay: crRNA (strand 1, pre-loaded); Mg2+; 40 mM Tris-HCl pH 7.5, 150 mM NaCl, 6 mM MgCl2, 1 mM DTT, 0.1% Tween-20, 0.2 mg/ml BSA; 25 C; 10 min per concentration, then washed; settings: tags: His6-TwinStrep-SUMO cleaved; N-terminal SNAP kept (SNAP-Surface 488); label: 3' end held by stalled T7 RNA polymerase

| Binder | Kd [nM] |
| --- | --- |
| B1 | 55 ± 14 |
| B2 | 53 ± 8.5 |
| B3 | 105 ± 45 |
| B4 | ~100 |
| B5 | 91 ± 25.5 |
| B6 | 64 ± 22.5 |
| B7 | 92 ± 24 |
| B8 | 64.5 ± 11 |
| B9 | 58 ± 6.5 |
| B10 | 83.5 ± 23 |
| B11 | 41 ± 5.5 |
| B12 | 34 ± 4 |
| B13 | 12.2 ± 1.3 |
| B14 | 29.1 ± 3.6 |
| B15 | 13.7 ± 1.15 |
| B16 | 91 ± 20 |
| B17 | 40.5 ± 5.5 |

| Binder | Kd [nM] |
| --- | --- |
| B18 | 20.6 ± 2.2 |
| B19 | 17.2 ± 2.55 |
| B20 | 28.9 ± 5.65 |
| B21 | 8.6 ± 0.7 |
| B22 | 70 ± 20 |
| B23 | 6.45 ± 0.55 |
| B24 | 3.11 ± 0.33 |
| B25 | 67 ± 12 |
| B26 | 50.5 ± 15.5 |
| B27 | 87.5 ± 28 |
| B28 | 22.1 ± 2.4 |
| B29 | 52 ± 11 |
| B30 | 27.8 ± 3.6 |
| B31 | 29 ± 5 |
| B32 | 34 ± 6 |
| B33 | 15.3 ± 4.1 |
